System: DIO C57BL/6J mice
Test: Enho 1 ip for 7 days in DIO C57BL/6J mice (Examples 23-25)
Format: in vivo, mouse
Description: (§1) The effect of Enho-1 upon weight loss was tested over the course of 7 days using DIO C57BL/6J mice (Charles River Laboratories). The mice were fed a high fat diet (Research Diets 12492) for 10 weeks prior to the start of the experiment, which was begun when the mice were 15-16 weeks of age. Control mice received vehicle only while test mice each received doses of either 90 nmol/kg/d, 900 nmol/kg/d or 9000 nmol/kg/d. The injections were given as 3 ip injections at 0800, 1200 and 1600 h for 7 days. On day 8, the mice were given the 0800 h injection and were sacrificed 1-3 h later.
as §1, with “insulin and glucose” for “weight loss”, “later at which time blood samples were collected and levels of insulin and glucose determined.” for “later.”
The HOMA-IR for each treatment was calculated using the following formula: ((glucose mg/dL÷18)×(insulin ng/ml×25.05))÷22.5
as §1, with “levels of blood lipids” for “weight loss”, “later at which time blood samples were collected and levels of trigylcerides determined. Triglycerides were measured using a Triglyceride L-Type TG H kit (Wako Diagnostics).” for “later.”

[1] = 90 nmol/kg/d ip, listed as Enho-1
[2] = 900 nmol/kg/d ip, listed as Enho-1
[3] = 9000 nmol/kg/d ip, listed as Enho-1

B1: Enho 1: human Enho 1, a 76 amino acid peptide having the sequence SEQ ID NO: 14 (peptide, listed as Homo sapiens)
chain: MGAAISQGALIAIVCNGLVGFLLLLLWVILCWACHSRSADVDSLSESSPNSSPGPCPEKAPPPQKPSHEGSYLLQP
Question: Which Blood glucose (90 nmol/kg/d ip) does the source give for B1 here?
Answer: Its Blood glucose is 182 mg/dL.

Question: And the Delta body weight (90 nmol/kg/d ip)?
Answer: Its Delta body weight is 6.6%.

Question: What about the HOMA-IR (90 nmol/kg/d ip) of the same molecule?
Answer: The HOMA-IR was 15.

Question: What about the “HOMA-IR decrease as compared to the control group” value (“HOMA-IR decrease” for short) (90 nmol/kg/d ip) of the same molecule?
Answer: Its value is 15%.

Question: What about the Insulin (90 nmol/kg/d ip) of the same molecule?
Answer: Its Insulin is 1.3 ng/mL.

Question: And the “TG (blood triglyceride level)” value (90 nmol/kg/d ip)?
Answer: Its value is 22.5 mg/dL.

Question: And the “Weight (pre-treatment)” value (90 nmol/kg/d ip)?
Answer: The value was 36.5 g.

Question: What about the “Weight (termination)” value (90 nmol/kg/d ip) of the same molecule?
Answer: The value was 34.0 g.

Question: And the Blood glucose [1]?
Answer: The Blood glucose was 182 ± 17 mg/dL.

Question: What about the HOMA-IR [1] of the same molecule?
Answer: The HOMA-IR was 15 ± 2.

Question: What about the “HOMA-IR decrease” value [1] of the same molecule?
Answer: Its value is “(↓ 32%)”.

Question: What about the Insulin [1] of the same molecule?
Answer: Its Insulin is 1.3 ± 0.1 ng/mL.

Question: What about the “TG (blood triglyceride level)” value [1] of the same molecule?
Answer: The value was 22.5 ± 6.0 mg/dL.

Question: And the “Weight (pre-treatment)” value [1]?
Answer: The value was 36.5 ± 1.3 g.

Question: And the “Weight (termination)” value [1]?
Answer: The value was 34.0 ± 1.0 g.

Question: What about the Blood glucose (900 nmol/kg/d ip) of the same molecule?
Answer: The Blood glucose was 212 mg/dL.

Question: And the Delta body weight (900 nmol/kg/d ip)?
Answer: Its Delta body weight is 7.1%.

Question: And the HOMA-IR (900 nmol/kg/d ip)?
Answer: The HOMA-IR was 29.

Question: And the “HOMA-IR decrease” value (900 nmol/kg/d ip)?
Answer: The value was 29%.

Question: What about the Insulin (900 nmol/kg/d ip) of the same molecule?
Answer: Its Insulin is 2.2 ng/mL.

Question: And the “TG (blood triglyceride level)” value (900 nmol/kg/d ip)?
Answer: The value was 38.0 mg/dL.

Question: What about the “Weight (pre-treatment)” value (900 nmol/kg/d ip) of the same molecule?
Answer: The value was 37.9 g.

Question: What about the “Weight (termination)” value (900 nmol/kg/d ip) of the same molecule?
Answer: Its value is 36.0 g.

Question: What about the Blood glucose [2] of the same molecule?
Answer: Its Blood glucose is 212 ± 11 mg/dL.

Question: What about the HOMA-IR [2] of the same molecule?
Answer: Its HOMA-IR is 29 ± 4.

Question: What about the Insulin [2] of the same molecule?
Answer: Its Insulin is 2.2 ± 0.3 ng/mL.

Question: What about the “TG (blood triglyceride level)” value [2] of the same molecule?
Answer: The value was 38.0 ± 12.5 mg/dL.

Question: And the “Weight (pre-treatment)” value [2]?
Answer: Its value is 37.9 ± 1.4 g.

Question: What about the “Weight (termination)” value [2] of the same molecule?
Answer: The value was 36.0 ± 1.2 g.

Question: And the Blood glucose (9000 nmol/kg/d ip)?
Answer: The Blood glucose was 190 mg/dL.

Question: And the Delta body weight (9000 nmol/kg/d ip)?
Answer: The Delta body weight was 6.7%.

Question: What about the HOMA-IR (9000 nmol/kg/d ip) of the same molecule?
Answer: The HOMA-IR was 16.

Question: What about the “HOMA-IR decrease” value (9000 nmol/kg/d ip) of the same molecule?
Answer: The value was 27%.

Question: And the Insulin (9000 nmol/kg/d ip)?
Answer: The Insulin was 1.3 ng/mL.

Question: And the “TG (blood triglyceride level)” value (9000 nmol/kg/d ip)?
Answer: Its value is 18.5 mg/dL.

Question: And the “TG decrease from the control” value (9000 nmol/kg/d ip)?
Answer: Its value is 19%.

Question: What about the “Weight (pre-treatment)” value (9000 nmol/kg/d ip) of the same molecule?
Answer: Its value is 33.8 g.

Question: And the “Weight (termination)” value (9000 nmol/kg/d ip)?
Answer: The value was 31.6 g.

Question: And the Blood glucose [3]?
Answer: Its Blood glucose is 190 ± 16 mg/dL.

Question: And the HOMA-IR [3]?
Answer: Its HOMA-IR is 16 ± 4.

Question: And the “HOMA-IR decrease” value [3]?
Answer: Its value is “(↓ 27%)”.

Question: And the Insulin [3]?
Answer: Its Insulin is 1.3 ± 0.2 ng/mL.

Question: What about the “TG (blood triglyceride level)” value [3] of the same molecule?
Answer: The value was 18.5 ± 1.7 mg/dL.

Question: And the “TG decrease from the control” value [3]?
Answer: The value was “(↓ 19%)”.

Question: What about the “Weight (pre-treatment)” value [3] of the same molecule?
Answer: The value was 33.8 ± 0.8 g.

Question: And the “Weight (termination)” value [3]?
Answer: Its value is 31.6 ± 0.7 g.
